Reference: the supplement of paper PMC9170038

Tested on: MS2 coat protein
Test: apparent KD of MS2 coat protein; designed switch direction (-1 OFF switch, 1 ON switch): 1; higher = weaker reporter binding
Procedure, shortened: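 The apparent KD reported per design is the median over clusters of curve fits to normalised cluster fluorescence. The RNA switches were transcribed on Illumina chips by stalled E. coli RNA polymerase. SNAP-549-labelled MS2 coat protein was titrated from 0.7 or 1.5 nM, doubling up to 3 µM, in Tris-HCl pH 7.5 buffer containing KCl, MgCl2, BSA, DTT, tRNA and Tween-20, with no input, 200 uM small-molecule ligand, or an oligonucleotide input.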

[1] = input ligand: microRNA oligo, concentration not stated
[2] = Eterna round: R95, input ligand: FMN 200 uM
[3] = Eterna round: R95, input ligand: microRNA oligo, concentration not stated
[4] = Eterna round: R95, input ligand: none

Sequence: GAUUAACAUGAGGAUCACCCAUGUCGUUAUAUGGGAGGAUAUACGUGGACCGUAGUCCGCGUAGAAGGCCUAAUUG [Mat - Same State 1 - Mod of JL - D23] (Eterna round: R96, puzzle: Same State 1)
- apparent KD of MS2 coat protein (input ligand: FMN 200 uM): 67.3 nM
- apparent KD of MS2 coat protein [1]: 115 nM
- apparent KD of MS2 coat protein (input ligand: none): 262 nM

Sequence: GGUCCAGCCUGAGCUGGACAAAAGCAUGUACAUGAGGAUCACCCAUGUCAUGUACAAGCUUUUUGCUCGUCUUAAUA [Mat - hsa-mir-208a - 89] (puzzle: Sensor for hsa-mir-208a)
- apparent KD of MS2 coat protein [2]: 583 nM
- apparent KD of MS2 coat protein [3]: 15 nM
- apparent KD of MS2 coat protein [4]: 548 nM

Sequence: CGGCGCUGUCGAGAGGAUAUGCGGUGAUGGACAUGAGGAUCACCCAUGUUAGCGAUAGCAUCACGGUAGAAGGCUCUUACGCCUG [Soteed Omei mod 23] (puzzle: Same State 2)
- apparent KD of MS2 coat protein [2]: 91.5 nM
- apparent KD of MS2 coat protein [3]: 130 nM
- apparent KD of MS2 coat protein [4]: 205 nM

Sequence: UAGGAUCAACGAGGAUAUAAUAGGUUCUAUUCGUGAUAUUGCGUACAUGAGGAUCACCCAUGUUAUUAGAAGGCGUAUGGGUUU [JR_SSNG2_Sub085] (Eterna round: R96, puzzle: Same State NG 2)
- apparent KD of MS2 coat protein (input ligand: FMN 200 uM): 78.7 nM
- apparent KD of MS2 coat protein [1]: 69.9 nM
- apparent KD of MS2 coat protein (input ligand: none): 92.8 nM

Sequence: AAUAAUCUAUCUGAGGAUAUCAUGAAAUAAACAUGAGGAUCACCCAUGUGCAGGAAAACUGCAUAUGAGAAGGCAGAUAGAUUGA [salish99_ss2_r3_020] (puzzle: Same State 2)
- apparent KD of MS2 coat protein [2]: 43.8 nM
- apparent KD of MS2 coat protein [3]: 551 nM
- apparent KD of MS2 coat protein [4]: 1160 nM

Sequence: ACAUGAGAGAAAGGAUAUCAUGUACCUACAUGUGACAUGAGGAUCACCCAUGUGGUAAGUAUGAGUGAGAAGGUUCAGAUAUGU [Equivalence 34 - Jieux - Same State NG 2] (Eterna round: R96, puzzle: Same State NG 2)
- apparent KD of MS2 coat protein (input ligand: FMN 200 uM): 44.4 nM
- apparent KD of MS2 coat protein [1]: 298 nM
- apparent KD of MS2 coat protein (input ligand: none): 448 nM

Sequence: AUUUUUAAUGCAGGAUAUGAUUAACAUGAGGAUCACCCAUGUGGUGUUGUGAGUAAGGAGAGUGAUCAGAAGGGCAUUUUGUUU [JMF's solution 83] (Eterna round: R96, puzzle: Same State NG 2)
- apparent KD of MS2 coat protein (input ligand: FMN 200 uM): 747 nM
- apparent KD of MS2 coat protein [1]: 400 nM
- apparent KD of MS2 coat protein (input ligand: none): 687 nM

Sequence: UCUUGGUUUUUGCUCGUUUUUUGUGUUGAACAUGAGGAUCACCCAUGUAUUAUACGGUCCGGUUUAAUAAUAAUCCG [JMF 81] (puzzle: Sensor for hsa-mir-208a)
- apparent KD of MS2 coat protein [2]: 24.2 nM
- apparent KD of MS2 coat protein [3]: 14.6 nM
- apparent KD of MS2 coat protein [4]: 27.3 nM

Sequence: CCGUAGAUGGAAGGAUAUGGAGCCUUAUUGGCUCCAGAAGGUUCAAUAACAUGAGGAUCACCCAUGUCGGCGGUCAAUAGACCG [Eli NG1ss - 80] (Eterna round: R96, puzzle: Same State NG 1)
- apparent KD of MS2 coat protein (input ligand: FMN 200 uM): 20.5 nM
- apparent KD of MS2 coat protein [1]: 27.7 nM
- apparent KD of MS2 coat protein (input ligand: none): 44.9 nM

Sequence: ACAUGAGACUUAGGAUAUCUUGUACCUACAUGUGACAUGAGGAUCACCCAUGUGGUAAGUAUGACAGAGAAGGAAGAGAUAUGU [Equivalance 68 - Jieux - Same State NG 2] (Eterna round: R96, puzzle: Same State NG 2)
- apparent KD of MS2 coat protein (input ligand: FMN 200 uM): 40.4 nM
- apparent KD of MS2 coat protein [1]: 49.9 nM
- apparent KD of MS2 coat protein (input ligand: none): 79.7 nM

Sequence: AUGAUUAAUGCAGGAUAUGAUUAACAUGAGGAUCACCCAUGUGGUGUUGUGAGUAAGGAGAGUGAUCAGAAGGGCAUUUUUUUU [JMF's solution 34] (Eterna round: R96, puzzle: Same State NG 2)
- apparent KD of MS2 coat protein (input ligand: FMN 200 uM): 731 nM
- apparent KD of MS2 coat protein [1]: 430 nM
- apparent KD of MS2 coat protein (input ligand: none): 701 nM

Sequence: GGAGAGAGAGCACAGGAUAUUUAAGGAGAGACAUGAGGAUCACCCAUGUGAGAGAGAGAGGAGAGAGAGAAGGGUGAGAGAGAGG [Altered State 2-17 - Jieux - Same State 2] (puzzle: Same State 2)
- apparent KD of MS2 coat protein [2]: 109 nM
- apparent KD of MS2 coat protein [3]: 79.1 nM
- apparent KD of MS2 coat protein [4]: 83.9 nM

Sequence: UAUCCAUAGAUAGGAUAUUAGUGAACAUGAGGAUCACCCAUGUUUUGCUUGGUUUUAAGUUAAUCUGAGAAGGAUCUUGAUGAA [SameState NG2 #5] (Eterna round: R96, puzzle: Same State NG 2)
- apparent KD of MS2 coat protein (input ligand: FMN 200 uM): 20.3 nM
- apparent KD of MS2 coat protein [1]: 14.6 nM
- apparent KD of MS2 coat protein (input ligand: none): 20.4 nM

Sequence: AGAGGAGGCGCAGGAUAUACGACGGAGGACGUGGUAGAAGGGUGCAUGCGAUGACAUGAGGAUCACCCAUGUACCGCGCGACGA [AK SSNG1-V2-16] (Eterna round: R96, puzzle: Same State NG 1)
- apparent KD of MS2 coat protein (input ligand: FMN 200 uM): 337 nM
- apparent KD of MS2 coat protein [1]: 14.2 nM
- apparent KD of MS2 coat protein (input ligand: none): 78.9 nM

Sequence: GUGGUGUAGAUACAGGAUAUGUUGCUCGUAACAUGAGGAUCACCCAUGUAUGUAUGAGAAUGAAUGCAGAAGGGUGCACACCACG [Mat - Same State 2 - Mod of UCT - D77] (puzzle: Same State 2)
- apparent KD of MS2 coat protein [2]: 13.8 nM
- apparent KD of MS2 coat protein [3]: 106 nM
- apparent KD of MS2 coat protein [4]: 159 nM

Sequence: GGCCUCUGUCAAGGAUAUGCUACCGUUUCGGUAGCAGAAGGUGAUCACAUGAGGAUCACCCAUGUUUAGGCCAACAGGCCCGCC (Eterna round: R96, puzzle: Same State NG 1)
- apparent KD of MS2 coat protein (input ligand: FMN 200 uM): 1420 nM
- apparent KD of MS2 coat protein [1]: 445 nM
- apparent KD of MS2 coat protein (input ligand: none): 1070 nM

Sequence: CCGUAAUAUGGAGGAUAUGGAGCCUUAUUGGCUCCAGAAGGUCAUAACACAUGAGGAUCACCCAUGUCGGCGGUCAAUAGACCG [Eli NG1ss - 76] (Eterna round: R96, puzzle: Same State NG 1)
- apparent KD of MS2 coat protein (input ligand: FMN 200 uM): 19.4 nM
- apparent KD of MS2 coat protein [1]: 74.9 nM
- apparent KD of MS2 coat protein (input ligand: none): 68.3 nM

Sequence: UCUUGGUUUUUGCUCGUUUUUUGUGUUGAACAUGAGGAUCACCCAUGUAUUGUACGGUCCGGUUUGAUAAUGGUCCG [JMF 13] (puzzle: Sensor for hsa-mir-208a)
- apparent KD of MS2 coat protein [2]: 26 nM
- apparent KD of MS2 coat protein [3]: 15.5 nM
- apparent KD of MS2 coat protein [4]: 27.1 nM

Sequence: UGAACCUUCACAGGAUAUCAUGCGAAAAUUGCGUGAGAAGGGUGGAUGUGGUGUUCAAAGAUGCACAUGAGGAUCACCCAUGUA [SameState NG1 #48] (Eterna round: R96, puzzle: Same State NG 1)
- apparent KD of MS2 coat protein (input ligand: FMN 200 uM): 106 nM
- apparent KD of MS2 coat protein [1]: 166 nM
- apparent KD of MS2 coat protein (input ligand: none): 203 nM

Sequence: UUGCAGUGCGGGUAGGAUAUGUAGGGUGGUACAUGAGGAUCACCCAUGUAUCCACCCUUCGACCGGCAGAAGGGCCUGUCACCGC [Lexeis] (Eterna round: R96, puzzle: Same State 2)
- apparent KD of MS2 coat protein (input ligand: FMN 200 uM): 23.1 nM
- apparent KD of MS2 coat protein [1]: 11.2 nM
- apparent KD of MS2 coat protein (input ligand: none): 17.4 nM

Sequence: GUAGCAUACCGAGGAUAUUCAUAUAAUAUUACAUGAGGAUCACCCAUGUAUAGGCGAAAGCCUUGGGAGAAGGCGGAAUGCUAC [Xeonanis - 20 Mod61] (Eterna round: R96, puzzle: Same State NG 2)
- apparent KD of MS2 coat protein (input ligand: FMN 200 uM): 13.2 nM
- apparent KD of MS2 coat protein [1]: 24.9 nM
- apparent KD of MS2 coat protein (input ligand: none): 28.6 nM

Sequence: GGUAGGUUACUACCAAUCUACAUGAGGAUCACCCAUGUGUAGGAGGAUAUGGUACCUAUUUGGUACCAGAAGGCCUGAUUAAUU [Fiskers NG3ss - 8] (Eterna round: R96, puzzle: Same State NG 3)
- apparent KD of MS2 coat protein (input ligand: FMN 200 uM): 115 nM
- apparent KD of MS2 coat protein [1]: 80.4 nM
- apparent KD of MS2 coat protein (input ligand: none): 247 nM

Sequence: GUAGCAUACCGAGGAUAUUCAUAAAAUAAAUAAACAUGAGGAUCACCCAUGUGGCGAAAGCCUUGGGAGAAGGCGGAAUGCUAC [Xeonanis - 20 Mod73] (Eterna round: R96, puzzle: Same State NG 2)
- apparent KD of MS2 coat protein (input ligand: FMN 200 uM): 20 nM
- apparent KD of MS2 coat protein [1]: 370 nM
- apparent KD of MS2 coat protein (input ligand: none): 359 nM

Sequence: ACUCAGUACAAUUUAGAUCUACAUGAGGAUCACCCAUGUACUGAGGAUAUCAGCUCGAAUAGAGCUGAGAAGGCAGUUGUACUA [SSNG3/10-A1] (Eterna round: R96, puzzle: Same State NG 3)
- apparent KD of MS2 coat protein (input ligand: FMN 200 uM): 102 nM
- apparent KD of MS2 coat protein [1]: 138 nM
- apparent KD of MS2 coat protein (input ligand: none): 248 nM

Sequence: GGUGCCAAUAAAGCCUACAUGAGGAUCACCCAUGUAUGUAGGCAGGAUAUCGUUUGCUUUGCAAACGAGAAGGGCUGAGGCACC [JL SSNG3 1.18] (Eterna round: R96, puzzle: Same State NG 3)
- apparent KD of MS2 coat protein (input ligand: FMN 200 uM): 16.8 nM
- apparent KD of MS2 coat protein [1]: 28.6 nM
- apparent KD of MS2 coat protein (input ligand: none): 38.6 nM

Sequence: AUUAUACAUGAGGAUCACCCAUGUCAACAAAGUCGAGGAUAUGGGCAAAUAAAAUAAGAACCAGAAGGCGAAUAAU [salish99_ss1_r3_069] (Eterna round: R96, puzzle: Same State 1)
- apparent KD of MS2 coat protein (input ligand: FMN 200 uM): 69.2 nM
- apparent KD of MS2 coat protein [1]: 189 nM
- apparent KD of MS2 coat protein (input ligand: none): 293 nM

Sequence: UGUUGUAUUACAGGAUAUCUAGUAUAUUUAUUUAGAGAAGGGUAUUCACAUGAGGAUCACCCAUGUAUAUACGAGGAAGUUGUG [JMF's solution 37] (Eterna round: R96, puzzle: Same State NG 1)
- apparent KD of MS2 coat protein [1]: 29.6 nM

Sequence: UCUUGGUUUUUGCUCGUUUUUUGUGUUGAACAUGAGGAUCACCCAUGUAUUGUACGGUCCGGUUUGAUAGUGGUCCA [JMF 45] (puzzle: Sensor for hsa-mir-208a)
- apparent KD of MS2 coat protein [2]: 111 nM
- apparent KD of MS2 coat protein [3]: 71.6 nM
- apparent KD of MS2 coat protein [4]: 120 nM

Sequence: GUGGUGUAGAUACAGGAUAUGUUGCUCGUAACAUGAGGAUCACCCAUGUAUCUAUGAGAUAAAAUGCAGAAGGGUGCACACCACU [Mat - Same State 2 - Mod of UCT - D75] (puzzle: Same State 2)
- apparent KD of MS2 coat protein [3]: 245 nM

Sequence: GCUACCAUUGAAGCCAACAUGAGGAUCACCCAUGUAUGUUGGUAGGAUAUCGAUUGCUUUGCGAUCGAGAAGGGCUAAGGUAGC [JL SSNG3 1.28] (Eterna round: R96, puzzle: Same State NG 3)
- apparent KD of MS2 coat protein (input ligand: FMN 200 uM): 52.6 nM
- apparent KD of MS2 coat protein [1]: 48 nM
- apparent KD of MS2 coat protein (input ligand: none): 45.1 nM
